Numbering of substitutions follows the chain as printed. Names and notes keep the numbering of the source.
T1: PUF4 RNA-binding domain (Saccharomyces cerevisiae, UniProt P25339 537-888)
T1 sequence: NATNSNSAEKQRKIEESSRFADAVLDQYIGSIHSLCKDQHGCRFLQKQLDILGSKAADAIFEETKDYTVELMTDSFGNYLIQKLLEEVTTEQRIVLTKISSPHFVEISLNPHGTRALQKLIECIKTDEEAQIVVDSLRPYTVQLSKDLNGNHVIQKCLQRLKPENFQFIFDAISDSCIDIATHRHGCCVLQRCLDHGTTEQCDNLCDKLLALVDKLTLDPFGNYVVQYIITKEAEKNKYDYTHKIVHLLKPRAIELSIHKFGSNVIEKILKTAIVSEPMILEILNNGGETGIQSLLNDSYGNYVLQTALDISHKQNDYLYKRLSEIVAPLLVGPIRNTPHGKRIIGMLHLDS

B1: Ic_S2_P4E.1_K4.1_C4.1_H4.1_A4.1_[A6G]_[T7C]_F4.1_[T8A]_[A9G]_T4.1 (ssRNA)
RNA: UUUGAUUAAUAUGAUAUCGUUCUUUCUUGUAUGCAGUUCUUUCUCGAUAUCAUAUUAAUCUUU
B2: Ic_S2_P4E.1_K4.1_C4.1_H4.1_A4.1_[A6G]_F4.1_[T8C]_[A9C]_T4.1 (ssRNA)
RNA: B1 RNA with C34U, A35C, G36C
B3: Ic_S2_P4E.1_K4.1_C4.1_H4.1_A4.1_[A6G]_F4.1_[T8G]_[A9C]_T4.1 (ssRNA)
RNA: B1 RNA with C34U, A35G, G36C
B4: Ic_S2_P4E.1_K4.1_C4.1_H4.1_A4.1_[A6C]_F4.1_[T8G]_[A9T]_T4.1 (ssRNA)
RNA: B1 RNA with G33C, C34U, A35G, G36U
B5: Ic_S2_P4E.1_K4.1_C4.1_H4.1_A4.1_[A6G]_[T7G]_F4.1_[A9T]_T4.1 (ssRNA)
RNA: B1 RNA with C34G, A35U, G36U
B6: Ic_S2_P4E.1_K4.1_C4.1_H4.1_A4.1_[A6G]_[T7C]_F4.1_[T8C]_[A9T]_T4.1 (ssRNA)
RNA: B1 RNA with A35C, G36U
B7: Ic_S2_P4E.1_K4.1_C4.1_H4.1_A4.1_[A6C]_F4.1_[T8C]_[A9C]_T4.1 (ssRNA)
RNA: B1 RNA with G33C, C34U, A35C, G36C
B8: Ic_S2_P4E.1_K4.1_C4.1_H4.1_A4.1_[T5A]_[T7C]_F4.1_[T8A]_[A9G]_T4.1 (ssRNA)
RNA: B1 RNA with U32A, G33A
B9: Ic_S2_P4E.1_K4.1_C4.1_H4.1_A4.1_[T5A]_[T7C]_F4.1_[T8A]_[A9C]_T4.1 (ssRNA)
RNA: B1 RNA with U32A, G33A, G36C
B10: Ic_S2_P4E.1_K4.1_C4.1_H4.1_A4.1_[A6G]_[T7C]_F4.1_[T8C]_T4.1 (ssRNA)
RNA: B1 RNA with A35C, G36A
B11: Ic_S2_P4E.1_K4.1_C4.1_H4.1_A4.1_[A6C]_[T7G]_F4.1_[A9G]_T4.1 (ssRNA)
RNA: B1 RNA with G33C, C34G, A35U
B12: Ic_S2_P4E.1_K4.1_C4.1_H4.1_A4.1_[A6C]_F4.1_[T8A]_[A9T]_T4.1 (ssRNA)
RNA: B1 RNA with G33C, C34U, G36U
B13: Ic_S2_P4E.1_K4.1_C4.1_H4.1_A4.1_[A6G]_F4.1_[T8A]_[A9C]_T4.1 (ssRNA)
RNA: B1 RNA with C34U, G36C
B14: Ic_S2_P4E.1_K4.1_C4.1_H4.1_A4.1_[A6C]_F4.1_[T8C]_[A9T]_T4.1 (ssRNA)
RNA: B1 RNA with G33C, C34U, A35C, G36U
B15: Ic_S2_P4E.1_K4.1_C4.1_H4.1_A4.1_[T5A]_[T7C]_F4.1_[A9C]_T4.1 (ssRNA)
RNA: B1 RNA with U32A, G33A, A35U, G36C
B16: Ic_S2_P4E.1_K4.1_C4.1_H4.1_A4.1_[T5A]_[T7A]_F4.1_[A9G]_T4.1 (ssRNA)
RNA: B1 RNA with U32A, G33A, C34A, A35U
B17: Ic_S2_P4E.1_K4.1_C4.1_H4.1_A4.1_[A6C]_[T7C]_F4.1_[T8A]_[A9C]_T4.1 (ssRNA)
RNA: B1 RNA with G33C, G36C
B18: Ic_S2_P4E.1_K4.1_C4.1_H4.1_A4.1_[T5A]_F4.1_[T8G]_[A9T]_T4.1 (ssRNA)
RNA: B1 RNA with U32A, G33A, C34U, A35G, G36U
B19: Ic_S2_P4E.1_K4.1_C4.1_H4.1_A4.1_[A6C]_[T7A]_F4.1_[A9G]_T4.1 (ssRNA)
RNA: B1 RNA with G33C, C34A, A35U
B20: Ic_S2_P4E.1_K4.1_C4.1_H4.1_A4.1_[T5A]_F4.1_[T8A]_[A9G]_T4.1 (ssRNA)
RNA: B1 RNA with U32A, G33A, C34U
B21: Ic_S2_P4E.1_K4.1_C4.1_H4.1_A4.1_[A6C]_[T7G]_F4.1_[A9C]_T4.1 (ssRNA)
RNA: B1 RNA with G33C, C34G, A35U, G36C
B22: Ic_S2_P4E.1_K4.1_C4.1_H4.1_A4.1_[A6G]_F4.1_[T8G]_[A9G]_T4.1 (ssRNA)
RNA: B1 RNA with C34U, A35G
B23: Ic_S2_P4E.1_K4.1_C4.1_H4.1_A4.1_[A6C]_F4.1_[T8A]_[A9G]_T4.1 (ssRNA)
RNA: B1 RNA with G33C, C34U
B24: Ic_S2_P4E.1_K4.1_C4.1_H4.1_A4.1_[T5A]_[T7C]_F4.1_[T8C]_[A9T]_T4.1 (ssRNA)
RNA: B1 RNA with U32A, G33A, A35C, G36U
B25: Ic_S2_P4E.1_K4.1_C4.1_H4.1_A4.1_[T5A]_[T7C]_F4.1_[A9T]_T4.1 (ssRNA)
RNA: B1 RNA with U32A, G33A, A35U, G36U
B26: Ic_S2_P4E.1_K4.1_C4.1_H4.1_A4.1_[A6C]_[T7C]_F4.1_[T8G]_[A9G]_T4.1 (ssRNA)
RNA: B1 RNA with G33C, A35G
B27: Ic_S2_P4E.1_K4.1_C4.1_H4.1_A4.1_[A6G]_[T7C]_F4.1_[T8A]_[A9C]_T4.1 (ssRNA)
RNA: B1 RNA with G36C
B28: Ic_S2_P4E.1_K4.1_C4.1_H4.1_A4.1_[T5A]_[T7A]_F4.1_[A9C]_T4.1 (ssRNA)
RNA: B1 RNA with U32A, G33A, C34A, A35U, G36C
B29: Ic_S2_P4E.1_K4.1_C4.1_H4.1_A4.1_[A6C]_[T7A]_F4.1_[T8C]_[A9T]_T4.1 (ssRNA)
RNA: B1 RNA with G33C, C34A, A35C, G36U

Target: T1, PUF4 RNA-binding domain
Test: Mg; RNA-MaP; 20 mM Na-HEPES pH 7.4, 30 mM KOAc, 0.75 mM MgCl2, 0.1% Tween-20, 5% glycerol, 0.1 mg/mL BSA, 2 mM DTT; 25 C; 0.0125-409.6 nM protein
Details: tags: N-His6-TEV cleaved; C-SNAP kept, Cy3B-labelled; label: tethered on chip by stalled RNA polymerase

| Binder | Kd |
| --- | --- |
| B1 | 1.09 µM |
| B2 | 0.0325 µM |
| B3 | 0.04 µM |
| B4 | 0.0179 µM |
| B5 | 0.224 µM |
| B6 | 0.404 µM |
| B7 | 0.0284 µM |
| B8 | 1.14 µM |
| B9 | 0.528 µM |
| B10 | 0.0293 µM |
| B11 | 0.0593 µM |
| B12 | 0.00799 µM |
| B13 | 0.0558 µM |
| B14 | 0.0177 µM |
| B15 | 0.0261 µM |
| B16 | 0.021 µM |
| B17 | 0.82 µM |
| B18 | 0.164 µM |
| B19 | 0.00475 µM |
| B20 | 0.0677 µM |
| B21 | 0.507 µM |
| B22 | 0.215 µM |
| B23 | 0.0329 µM |
| B24 | 0.242 µM |
| B25 | 0.0146 µM |
| B26 | 0.866 µM |
| B27 | 0.848 µM |
| B28 | 0.0652 µM |
| B29 | 0.0761 µM |

From article PMC9352680, “A comprehensive thermodynamic model for RNA binding by the Saccharomyces cerevisiae Pumilio protein PUF4”
